Measurements published in a protein production outcome set (Wang et al. 2014).

Assay: label from the status in PepcDB records

Sequence: MLTLAPCGRGPCAARGEGASRPVLTKSHSSSRLKPTSAGQHPGAGRGPLAWGMTEPVPVAPFPSVFGGVQQLRPDVFRVRLPLVNIFLMGVPGGDWVLVDTGMPGTAGLIRQAAAQVYGARAPQAIVLTHGHFDHIGALHALLAEWNVPVYAHPDELPHLTGEVPYRFPDPTVGGLMSLTSPLFLPGPYDFRPQVRTLPEDGTVPELPGWRWVHTPGHTEGHVSLWREADRLLIAGDAVVTTPQETVPGALASTPTVLRRPPAYYTPNWNATRDSVRTLAALRPALVATGHGHPLTDDSLGDALTRLADDFDHDPNGRPAHGWYLGHPAPMQKPRPGEPDPMRTLFLGALGAAGALWLLGRRRR
- protein production: failed

Sequence: MLTLVLASAQSPDLRGRGPDMEPRSSVAKSGVALGVLLLIGLPVAAQNSKVKTNYLSHIEPCNGVGATPLDVRIDACTAFIEASQGTTAALAIAYNNRGNAYTAKGDYDKAIRDFDQSIALKPTYAKAFNNRGVAYLRKGEYELAIEAFDDAIKLDPDYVAAFVNRAGAYLKKNDHQRAAHDYDEAIRLQPDSQAARSGRCWTRAVLGAWQAALEDCDRALQSGSTSAAVYDSRGLIHLKMGEFGAAIADYNSALRAAPELASALFGRGLAKLKQGDAIGGDSDISAAKTIQGNIGDEFAHYGVGRD
- protein production: failed

Sequence: MLTQEQIDGIYEDLEHPFHFLWFDIGDAHGVSSGETDPASFEERKKDFLFLVEKLLDEGKLKLGNRKTELIIDGTTAELVEMFRKSFPASDEEMLEGLWLVTEDCPFVAVWLFEGENGEDYYGWC
- protein production: failed

Sequence: MLTTFIVNSPILASIVFTLITIATYQFASACQQKWQYIWLNPMLFTISILVPFLLLIDINYQEYSQTTEILNLLLEPAIVALGMPLYQQFKQIRFYWREMTAILVLGITVVITVSFLLAMWLIKAPEIAIALSLKSVTTPIGITLTEQLFGDSSITAFAILIAGLFGALLGPQWLSFIGINSAKAQGLAIGSASHVIGTAVLVRKSAEHGAYSSVALILSAILTALISPWLIPLLQRLVT
- protein production: failed

Sequence: MLTTRLLISQRGRIAMKQVHLLTPVAGQLVPLESVHDPVFSQGMMGQGFGIEPTDGQVVAPISGKVTMVAASLHAIGFTGNNGLEVLVHLGIDTVELADRPPFKVNVQVGDTVEAGEKVAMMDLAAITSANKDTTVIMAVTNTADMVTKLTPELGEVRAGVVGAVVELKEHVAEASVVKGKGGKYDELATQIIAQVGGPVNVKSVIHCITRVRFYLKDEGQANDEAIRNLKGVIDVAKAGGQYQVVIGPAVTDVYDAIVGQLGAGFGDADASAVAMEKEANRLAWQKMTPWQKVKHGFSSLIGVITGSMIPVIGLLAASGILKGILSLLKNFNLVSATTPTYVIINAMGDSVFYFLPIFVGFTAAKKLGADPVIMGIIGGVLTYPAIVGMATTGKVTGHLLGMAINANFFGIPVHVASYTYSIFPMIAGAWLASKLEPWLKRVIPTVLRMIFVPLFEVVIISGAIIIILGPIITALSGALAAGIVAIYKLSPAISGLIIGGFYQVLVIFGLHWAIIPIVVNDITTTGHSYLNAIVSATMVAQGGAVLAIALKSKFANIKELAWPATISAFCGVTEPAMYGINLKYGRAFITASIGGAVGGFLTGLFNVNMWGFAGSLIGVTSFINPKGLDFSFYGFLIASAIDLIVAFTLTWMFGFSDNDVKNVKKAPEKKHLGQQVAN
- protein production: failed

Sequence: MLTVEPSEIQLTPGPILSLYLDLAGHLNWHIRSNLYLRGAEPRLDQKDPAAAAILELSLRLGSAPGGSVSCCWVTVSPGRMSVIDHVRDMAAAGLHSNVRLLSSLLLTMSNNNPELFSPSQKYQLLVYHADSLFHDKEYRNAVSKYTMALQQKKALSKTSKCLPSEIEVKYKMAECYTMLKLDKDAIAILDGIPSRQRTPKINMMLANLYKKAGQERPSVTSYKEVLRQCPLALDAILGLLSLSVKGAEVASMTMNVIQTVPNLDWLSVWIKAYAFVHTGDNSRAINTICSLEKKSLLRDNVDLLGSLADLYFRAGDNKNSVLKFEQAQMLDPYLIKGMDVYGYLLAREGRLEDVENLGCRLFNISDQHAEPWVVSGCHSFYSKRYSRALYLGAKAIQLNSNSVQALLLKGAALRNMGRVQEAIIHFREAIRLAPCRLDCYEGLIECYLASNSIREAMVMANNVYKTLGANAQTLTLLATVCLEDPVTQEKAKTLLDKALAQRPDYVKAVVKKAELLSREQKYEDGIALLRNALANQSDCVLHRILGDFLVSVNEYQEAMDQYSIALSLDPNDQKSLEGMQKMEKEGSPTDATQEDDVDDMEGSGEEGDLEGSDSEAAQWADQEQWFGMQ
- protein production: failed

Sequence: MLTVGILGGGQLGWMTILEGRKLGFKFHVLEDKENAPACRVADRCFRTGQISEFVDSCDIITYEFEHIKDEVLEKCESKLIPNPQALYVKKSRIREKLFLKKHGFPVPEFLVIKRDEIIDALKSFKLPVVIKAEKLGYDGKGQYRIKKLEDANQVVKNHDKEESFIIEEFVKFEAEISCIGVRDREGKTYFYPQPFNKHEEGILIYNYVPYAKLKEAEEITKRLMELLDIVGVFTVEFFLLKDGRVLINEFAPRVHNTGHWTLDGAYTSQFENLLRAITEMPLGSTELKLPSGMVNILGKSYEEIPLKEILSVEGAKLYWYGKEKKPRRKVGHVNVVGRSKEEVVEKVERVFTLLKGSREKLPAP
- protein production: not failed

Sequence: MLVLILLSSSLAIFAIINLSYSLGDAKAINASGSLRMQSYRLMFYANSGSEAAQEKITEFENTLHSEALHPSKSWLSPKKIAAQYQLVIDKWLVMKYYIEQENSRDYAASLKDFVDTIDLLVLEMEHHAAFKLRLLAASQIFGLGLMLSIAFLAVRFTKRKVVVPLQQLMESANTISKGNFEIEMPETEYIELTALTDALQKTARELATLYGNLESQVAEKTLALTRANNELAFLYDTLLTLNAKKLDYKALKAALNQLKDYESIDYLRLIIQYPEQELEMIEANGGWPESADNSTRFPLQFEQANLGYLELISAQDINTPLFKNFAIMLTRSIVIHNATEQRQQLALMEERGVIARELHDSLGQVLSFLKIQISLLRKNLDHSCRSPAVEVQLTEINEGVSTAYVQLRELLSTFRLTIKEPNLKNAMEAMLEQLRANTDIKIHLDYKLSPQWLEAKQHIHILQITREATLNAIKHANASHINIRCYKDDRGMVNISVSDNGVGIGHIKERDQHFGIGIMHERASKLDGEVVFSSNDTHTNSTATTEQRHQENPDSPLESHNTSNLSQGTIVTLIFPSQQEPTHG
- protein production: failed

Sequence: MLVLSYILLFASALFAWNMGSHYSGAVMGMAYGSKSLTIRQATVIAATFAFLGTITASSGVVHTYAFSLVGTTTIRQLTAALLGASVAILISTILKLPASTIQVYTFSLLFVGLASNIKLMYGGIEIVLSMWILMPLAAMLLSYLLAPKLVSKLADDSRKLKIIIIGSSVFSSFTLGSNDVSSAISPLVKVGILTGIVPYVFGGFFIGLGLITWGQRLIRRVGTEVVKTNAPLAAAAQLTEAIVIISGNLVGYNASINQTIIMSIYGAKRSMKSHVVTPMIFRSILLNWTVSSLISAVFGLFFLFILNLYI
- protein production: failed

Sequence: MLVSIILVNYNGADILPDCLNSIDKFISKDNCEILLVDNASQDNSYELVAQDFPDVKIVRLPKNYGFGAGNNAGAKIAKGKFLLLLNTDTILTTNILPHLIDLMRENPDVGIIGTKLVFPDETFQISFAYTIGIKGEYKSRKLHEYAEDKSKLNSLEQEFNTIKEVDIVVGAALFIRADLFHSVGGFDEKFFIYFEDADLCRRVQNQGYKILYTPQVSLIHIRGHSMKKNLEHHHHHH
- protein production: failed

Sequence: MLWFLTCVAALVGGYFIYGAFVEKVFGINEKRQTPAHTKTDGVDYVPMSTPKVYLVQLLNIAGVGPIFGPIMGALYGPAAMLWIVVGCIFAGAVHDYFSGMLSIRNGGASVPSITGRYLGNGAKHFMNIFAIVLLLLVGVVFVSAPAGMITNLINQQTDFTVSMTTMVVIIFAYYILATIVPVDKIIGRFYPLFGALLIFMSVGLMTAIAFSSEHQVLGGFEISDMVKNLNPNDMPLWPALFITIACGAISGFHATQSPLMARCMENEKNGRFVFYGAMIGEGIIALIWCTVALSFFGSLEALSEAVKNGGPGNVVYGASFGLLGVFGGVIAFLGVVILPITSGDTAFRSSRLILAEYFNMEQKTLRNRLLMAVPLFVIGAVLTQVDFGIIWRYFGFANQATAVMMLWTATAYLMRHNKLHWICTVPALFMTTVCISFILNSSTLGFGLPMQISTIAGVLASLGALAYVAKVSKGKGETDLADEEKPQGVTKTA
- protein production: failed

Sequence: MLWGMETAVRPEPAPSPLREHLAAGLKGLHPAYFALVMATGIVSIVSDVLGLREAAALLFWLNVPAYAVLWLLVAARALRYPRALAADLASHQRGPGFFTSVAATCVLGLQLVLLRGDAAAALALWWVGMLLWCACTYAVFVALAVRDPKPTLGEGINGGWLVAVVATQSVVVLGTRALVPRYPGSEAVLFFLASLWLCGGMLYVWMISLIFYRYMFFRFSPSDLMPPYWINMGAVAISVVAGTSLAALAPGSAFLGALLPFVKGLTLMFWATATWWIPMLVLLGIWRHGGPSRIRIAYDPLYWGLVFPLGMYALCTYRLGELFAMPVLPWVARTFATVALAAWLLTAFGLAGRFLQLVVLAVRSLHAERGAAGPQPGSLERMARRS
- protein production: failed

Sequence: MLWHVFYGRGRMLLSNHAQGRNFRPIFVMSDPISWTAEATERLKEIPFFVRPAARKKIENFAREAGITEITETVYEQAKQKFN
- protein production: failed

Sequence: MLYFDHWTKVPADIWRWPNFSPEEIACRSTGKVGIDPQAMDKLQALRDRLGAPLMLNSAYRSPEHNRAEGGAPASEHLKARAFDVSMINHDPAEFEAAARAVGFTGFGFYRRNNFIHVDIGPAREWGNRWFDRVPHGAPLRPAPRFSPPPKLRPETLAEDRGARGTALGAGGGVALIGALGNVVGDLNPTAQAIAFGGAIVLAASLAYLIRDKIREWA
- protein production: failed

Sequence: MLYIIGLGLYDEKDITVRGLEAVKSCDLVFLEHYTAILQCDVAKLEEFYGKKVIIGDRDLVETEADQILEPAKTKNVALLVVGDVYGATTHSDIFVRCQKMGIEVKVIHNASIMNAIGCSGLQLYRFGQTVSVCFWSEHWRPSSYYPKIKINRDNNMHTLVLLDIKVKERSEENIIKGRDIFEPPRYMTINQCIEQLLEVEKEQHLGVYDEDTMVVGMARVACADQKIVYGKMKDLLHYDFGAPMHCLLIPAPQVDDPELDHLEYFKYKPE
- protein production: not failed

Sequence: MLYKSVTESFNEFIIDRSDATCIRCKVCVRQCAYEVHAYEAKADALTEDNTLCIGCRRCSALCPTGAITIRSNEEVFKRNESWSNAHIRNLYAQADTGGILLAAMGNPAKYPIYWDHMLLDASQVTNPSIDPLREPMELRTYLGKKPHSIEVVRDEQTGKPKLATKLTPQIKMEYPFIFSAMSYGALNLNAHKAMAMAAKELGTLYNTGEGGLHRDLYQYGSNVMVQVASGRFGVSEAYLNAGVAIEIKVGQGAKPGIGGHLPGEKVNDQISETRMIPAGADAISPAPHHDIYSIEDLRQLIFALKEATNYTKPVSVKIAAVHHVAAIASGVARAGADIITIDGFRGGTGAAPQVIRDNVGIPMELALAAVDARLRDEGIRNQVSIVVGGGVRSSGDAIKAIALGADAINMGTSTLLALGCTLCQRCYTGKCPWGITTNNPYLAKRLNPELGAERLVNLVHAWGHEMKEILGGMGLNALESLRGNRYKLRALGLTEKDMNILGVMPAGE
- protein production: failed

Sequence: MMADEEEEVKPILQKLQELVDQLYSFRDCYFETHSVEDAGRKQQDVRKEMEKTLQQMEEVVGSVQGKAQVLMLTGKALNVTPDYSPKAEELLSKAVKLEPELVEAWNQLGEVYWKKGDVAAAHTCFSGALTHCRNKVSLQNLSMVLRQLRTDTEDEHSHHVMDSVRQAKLAVQMDVHDGRSWYILGNSYLSLYFSTGQNPKISQQALSAYAQAEKVDRKASSNPDLHLNRATLHKYEESYGEALEGFSRAAALDPAWPEPRQREQQLLEFLDRLTSLLESKGKVKTKKLQSMLGSLRPAHLGPCSDGHYQSASGQKVTLELKPLSTLQPGVNSGAVILGKVVFSLTTEEKVPFTFGLVDSDGPCYAVMVYNIVQSWGVLIGDSVAIPEPNLRLHRIQHKGKDYSFSSVRVETPLLLVVNGKPQGSSSQAVATVASRPQCE
- protein production: failed
